What was measured:
Nluc-GLP-1R (human) = Nluc-GLP-1R (human) (UniProt P43220)
[1] = target: Nluc-GLP-1R co-expressed with FLAG-RAMP3 (UniProt P43220)
Nluc-GLP-1R co-expressed with FLAG-RAMP3, sequence (P43220 24-463, chain 1 of 2): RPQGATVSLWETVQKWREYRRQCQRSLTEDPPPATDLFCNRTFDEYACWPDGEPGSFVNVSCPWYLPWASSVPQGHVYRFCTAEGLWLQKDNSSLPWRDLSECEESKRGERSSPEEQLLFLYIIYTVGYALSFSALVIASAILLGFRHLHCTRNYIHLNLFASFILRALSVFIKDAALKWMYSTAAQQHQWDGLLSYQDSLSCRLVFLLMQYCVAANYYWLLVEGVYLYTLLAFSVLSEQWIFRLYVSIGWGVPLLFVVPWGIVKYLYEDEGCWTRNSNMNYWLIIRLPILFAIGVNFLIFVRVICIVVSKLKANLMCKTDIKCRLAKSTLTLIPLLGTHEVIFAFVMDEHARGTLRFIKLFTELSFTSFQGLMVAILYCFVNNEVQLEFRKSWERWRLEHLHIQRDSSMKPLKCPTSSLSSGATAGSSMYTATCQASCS
Nluc-GLP-1R co-expressed with FLAG-RAMP3, sequence (O60896 24-148, chain 2 of 2, further chain): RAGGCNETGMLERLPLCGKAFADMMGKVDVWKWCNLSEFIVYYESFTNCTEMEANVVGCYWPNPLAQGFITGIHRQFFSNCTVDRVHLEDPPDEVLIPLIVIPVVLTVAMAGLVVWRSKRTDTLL

Nluc-GLP-1R (human), sequence (P43220 24-463): as the sequence (P43220 24-463, chain 1 of 2) above

| Substance | (Ca2+)i mobilisation in HEK293T cells, pEC50, receptor without RAMP3 (Nluc-GLP-1R (human)) [pEC50] | (Ca2+)i mobilisation in HEK293T cells, pEC50, RAMP3 over-expressed (2:1) [1] [pEC50] | (Ca2+)i mobilisation in HEK293T cells, maximal response, receptor without RAMP3 (percent of 10 μM ionomycin) (Nluc-GLP-1R (human)) |
| --- | --- | --- | --- |
| GLP-1 (7–36amide) (peptide) | 7.2 | 8.1 | – |
| exendin-4 (from UniProt P26349 48-87) (peptide) | – | – | 43.6 |
